This passage reports Kd results from paper PMC6797804 (2019).

Ends that are not written are not given here. * marks the point of attachment. Crotonyl(E) = C/C=C/C(=O)*

Experiment [1] has as its target T1, MORF DPF domain (residues 211–322) F287A/R306E/K309E (human, UniProt Q8WYB5 211-322, F287A | R306E | K309E).
T1 sequence: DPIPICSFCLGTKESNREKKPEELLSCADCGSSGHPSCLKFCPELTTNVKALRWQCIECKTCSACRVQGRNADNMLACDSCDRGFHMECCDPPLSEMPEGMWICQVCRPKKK
In words: NMR.

In experiment [2] the target is MORF DPF domain (residues 211–322) F287A (human, UniProt Q8WYB5 211-322, F287A). Put plainly: NMR.
Sequence of MORF DPF domain (residues 211–322) F287A (Q8WYB5 211-322 F287A): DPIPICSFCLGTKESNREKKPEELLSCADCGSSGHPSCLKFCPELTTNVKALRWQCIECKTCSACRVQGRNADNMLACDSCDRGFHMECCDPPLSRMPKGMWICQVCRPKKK
The target of experiment [3] is T2, MORF DPF domain (residues 211–322) F218A (human, UniProt Q8WYB5 211-322, F218A).
T2 sequence: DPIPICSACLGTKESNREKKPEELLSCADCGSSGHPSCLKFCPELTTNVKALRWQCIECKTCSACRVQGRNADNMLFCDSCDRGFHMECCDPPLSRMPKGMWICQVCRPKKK

Experiment [4] deals with T3, MORF DPF domain (residues 211–322), wild type (human, UniProt Q8WYB5 211-322).
T3 chain: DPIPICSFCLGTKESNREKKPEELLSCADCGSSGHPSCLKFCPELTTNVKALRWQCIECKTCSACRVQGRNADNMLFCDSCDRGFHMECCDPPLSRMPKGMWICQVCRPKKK

With ARTKQTARKSTGGK(Crotonyl(E))APRKQ [histone H3K14cr peptide (residues 1–19 of H3)], in experiment [1], the Kd (in general, the equilibrium constant for the complex coming apart) came out at 285 µM.
Turning to ARTKQTARKSTGGKAPRKQ [unmodified histone H3 peptide (residues 1–19 of H3)], the Kd was determined as 8000 µM in experiment [2], 3.3 µM in experiment [3] and 3.6 µM in experiment [4].
